Measurements from article PMC9234269.

What follows are substances tested against Aβ1–42 fibrils (sonicated, immobilized) (human) (UniProt P05067) (assay: ELISA; sonicated Aβ1–42 fibrils coated on a high binding plate (50 μl of 2.5 μg/ml, carbonate buffer pH 9.6, overnight 8°C); blocked with 2% BSA in PBS pH 7.4; chaperones in 2% BSA up to 5,000 nM, 2 h at room temperature; detected with polyclonal anti-6×His; bound amount estimated from standard curves of chaperone deposited directly (0–100 nM)).

| stoichiometry N (Aβ1–42 monomers per chaperone molecule) | Substance |
| --- | --- |
| 70 | Drosophila HSP10 (natural protein) |
| 1400 | GroES (from UniProt P0A6F9 1-97) (natural protein) |
| 800 | Human HSP10 (from UniProt P61604 3-102) (natural protein) |
